This data set concerns the target T1, glucocorticoid receptor (GR) ((MCF-7 breast cancer cells)) (UniProt P04150).
T1 sequence: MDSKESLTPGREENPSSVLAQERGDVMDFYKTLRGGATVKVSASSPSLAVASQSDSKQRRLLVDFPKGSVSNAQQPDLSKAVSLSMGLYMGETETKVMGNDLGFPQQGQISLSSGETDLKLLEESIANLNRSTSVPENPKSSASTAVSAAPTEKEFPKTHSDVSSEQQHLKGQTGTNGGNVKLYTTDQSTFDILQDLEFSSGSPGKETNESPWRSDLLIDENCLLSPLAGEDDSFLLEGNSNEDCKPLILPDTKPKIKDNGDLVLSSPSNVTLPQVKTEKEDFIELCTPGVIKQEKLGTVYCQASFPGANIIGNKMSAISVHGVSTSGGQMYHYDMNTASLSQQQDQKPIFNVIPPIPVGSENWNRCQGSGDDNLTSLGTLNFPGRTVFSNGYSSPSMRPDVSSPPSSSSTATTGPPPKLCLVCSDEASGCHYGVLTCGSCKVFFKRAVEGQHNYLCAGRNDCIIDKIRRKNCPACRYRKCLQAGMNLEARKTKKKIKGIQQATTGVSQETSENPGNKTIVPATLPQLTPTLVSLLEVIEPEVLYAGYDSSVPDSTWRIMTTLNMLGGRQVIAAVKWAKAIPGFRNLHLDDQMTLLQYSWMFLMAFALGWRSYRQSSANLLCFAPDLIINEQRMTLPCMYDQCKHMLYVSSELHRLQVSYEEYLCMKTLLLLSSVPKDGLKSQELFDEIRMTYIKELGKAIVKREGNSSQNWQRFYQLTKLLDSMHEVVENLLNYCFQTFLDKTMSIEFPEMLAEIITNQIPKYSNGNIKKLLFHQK
Briefly: EMSA supershift. To be noted: LightShift Chemiluminescent EMSA Kit (Thermo), 6% polyacrylamide gel, antibody 1:250, additional 30 min, buffer, salt, pH and temperature not stated. In general terms: A gel shift assay detects complexes by their altered migration in electrophoresis.

Turning to “TTCTGATCTTTGTTTTACTTTTCTTGGCTTCTG (double strand) [rs28714259 A (risk) probe]”, the binding signal (scale: fraction of G-probe supershift band intensity) is less than 0.4. As to “TTCTGATCTTTGTTTTGCTTTTCTTGGCTTCTG (double strand) [rs28714259 G (major) probe]”, for the setting “dexamethasone-treated MCF-7 nuclear extract, anti-GR antibody, reference”, the binding signal (fraction of G-probe band intensity) worked out at 1.
